According to IntAct's records for PubMed 25752543:

B1: Vascular endothelial growth factor C (Mus musculus), P97953-1 (parent)
chain: MHLLCFLSLACSLLAAALIPSPREAPATVAAFESGLGFSEAEPDGGEVKAFEGKDLEEQLRSVSSVDELMSVLYPDYWKMYKCQLRKGGWQQPTLNTRTGDSVKFAAAHYNTEILKSIDNEWRKTQCMPREVCIDVGKEFGAATNTFFKPPCVSVYRCGGCCNSEGLQCMNTSTGYLSKTLFEITVPLSQGPKPVTISFANHTSCRCMSKLDVYRQVHSIIRRSLPATLPQCQAANKTCPTNYVWNNYMCRCLAQQDFIFYSNVEDDSTNGFHDVCGPNKELDEDTCQCVCKGGLRPSSCGPHKELDRDSCQCVCKNKLFPNSCGANREFDENTCQCVCKRTCPRNQPLNPGKCACECTENTQKCFLKGKKFHHQTCSCYRRPCANRLKHCDPGLSFSEEVCRCVPSYWKRPHLN
partner: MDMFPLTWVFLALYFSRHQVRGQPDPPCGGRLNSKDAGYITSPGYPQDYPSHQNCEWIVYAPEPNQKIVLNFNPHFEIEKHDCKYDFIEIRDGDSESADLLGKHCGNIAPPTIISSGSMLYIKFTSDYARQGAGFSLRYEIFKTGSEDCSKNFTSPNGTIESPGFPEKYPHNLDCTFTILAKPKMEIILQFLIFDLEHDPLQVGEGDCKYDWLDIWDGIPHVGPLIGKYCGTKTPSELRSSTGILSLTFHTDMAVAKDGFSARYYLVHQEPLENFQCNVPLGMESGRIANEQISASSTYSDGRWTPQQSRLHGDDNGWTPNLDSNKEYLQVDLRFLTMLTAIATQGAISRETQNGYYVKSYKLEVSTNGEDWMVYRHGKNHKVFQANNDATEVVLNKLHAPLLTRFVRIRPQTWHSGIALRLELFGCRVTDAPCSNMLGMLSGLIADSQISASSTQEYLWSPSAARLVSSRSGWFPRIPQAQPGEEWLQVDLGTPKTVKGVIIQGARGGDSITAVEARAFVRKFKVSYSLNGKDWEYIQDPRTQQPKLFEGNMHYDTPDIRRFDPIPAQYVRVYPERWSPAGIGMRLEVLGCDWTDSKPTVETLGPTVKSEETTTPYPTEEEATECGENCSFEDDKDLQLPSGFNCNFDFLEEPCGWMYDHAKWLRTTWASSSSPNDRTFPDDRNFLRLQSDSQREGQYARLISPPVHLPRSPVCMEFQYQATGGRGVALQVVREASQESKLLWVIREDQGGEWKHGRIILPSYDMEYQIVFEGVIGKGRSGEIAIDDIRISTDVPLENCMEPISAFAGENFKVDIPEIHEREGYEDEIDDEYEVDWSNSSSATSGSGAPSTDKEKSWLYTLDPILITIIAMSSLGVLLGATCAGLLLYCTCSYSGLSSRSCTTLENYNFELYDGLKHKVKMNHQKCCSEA
B2: Neuropilin-2 (Homo sapiens), O60462 (parent)
chain: B1 partner
partner: B1 chain

Variants of: B1
Conditions: with nrp2_human NRP2, O60462

effect of a mutation on the interaction | Variant
decreasing interaction strength | MHLLCFLSLACSLLAAALIPSPREAPATVAAFESGLGFSEAEPDGGEVKAFEGKDLEEQLRSVSSVDELMSVLYPDYWKMYKCQLRKGGWQQPTLNTRTGDSVKFAAAHYNTEILKSIDNEWRKTQCMPREVCIDVGKEFGAATNTFFKPPCVSVYRCGGCCNSEGLQCMNTSTGYLSKTLFEITVPLSQGPKPVTISFANHTSCRCMSKLDVYRQVHSIIRESLPATLPQCQAANKTCPTNYVWNNYMCRCLAQQDFIFYSNVEDDSTNGFHDVCGPNKELDEDTCQCVCKGGLRPSSCGPHKELDRDSCQCVCKNKLFPNSCGANREFDENTCQCVCKRTCPRNQPLNPGKCACECTENTQKCFLKGKKFHHQTCSCYRRPCANRLKHCDPGLSFSEEVCRCVPSYWKRPHLN [R223E]

Variants of: B2
Conditions: with Vegfc

effect of a mutation on the interaction | Variant
disrupting interaction strength | T319R
